# ± gives the standard deviation of the averaged measurements.
# Tested on: Saccharomyces cerevisiae
# Test: protein stability index of tFT-peptide fusion (C-terminal peptide) (PSI (0-1 scale)); higher = more stable (slower turnover)
# Conditions: genetic background: wild type; temperature: 30 C
# Description: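 MPS profiling in S. cerevisiae of the yeast C-terminome library: the last 12 aa of each annotated ORF are fused to the C-terminus of a sfGFP-mCherry timer, after a GGGS linker. Cells are FACS-sorted into 8 mCherry/sfGFP bins and deep-sequenced. PSI runs from 0 (unstable) to 1 (stable); wild type and das1Δ backgrounds, two technical replicates each.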
row,Sequence,protein stability index
1,INDKNTEYTLKE [MRX9 C-terminal 12 aa],0.732 ± 0.017
2,INEFIEQSCKGE [YMR187C C-terminal 12 aa],0.7 ± 0.044
3,INQEAYQAFLRR [GUF1 C-terminal 12 aa],0.7039 ± 0.0062
4,IPPLIWLRKKRC [PUL3 C-terminal 12 aa],0.664 ± 0.0097
5,IQEISAAVKKYT [SAM4 C-terminal 12 aa],0.728 ± 0.038
6,IQTLRIKQDRYK [MAK10 C-terminal 12 aa],0.665 ± 0.029
7,ISEIEQLLSKLK [ATP4 C-terminal 12 aa],0.684 ± 0.045
8,ISNDMQVPPQIS [CKS1 C-terminal 12 aa],0.688 ± 0.011
9,ISPSKSITMVAE [YDR526C C-terminal 12 aa],0.6363 ± 0.0024
10,ITNEVNIYSPFF [YOR105W C-terminal 12 aa],0.7762 ± 0.0059
11,IVFVPSSSYSVN [YJR157W C-terminal 12 aa],0.671 ± 0.021
12,IVILIFDRLLSN [YGL081W C-terminal 12 aa],0.425 ± 0.03
13,IVIQVNNPLTRA [DOG1 C-terminal 12 aa],0.7098 ± 0.0059
14,IVIQVNNPLTRD [DOG2 C-terminal 12 aa],0.643 ± 0.0052
15,IVQLGMSHGDIS [SMF1 C-terminal 12 aa],0.699 ± 0.023
16,IYAALPKSKIKL [YMR304C-A C-terminal 12 aa],0.737 ± 0.013
17,IYEGFLDHANSF [TFB6 C-terminal 12 aa],0.745 ± 0.012
18,KAEYLKNCPITQ [RPC40 C-terminal 12 aa],0.719 ± 0.028
19,KAIRRCQAIGLM [RSM18 C-terminal 12 aa],0.672 ± 0.0076
20,KALKWEEQELNM [CCM1 C-terminal 12 aa],0.729 ± 0.057
21,KAPKILYKRKGY [HPA2 C-terminal 12 aa],0.675 ± 0.036

row,Sequence,protein stability index
1,KATQAIIGYTFK [VMA13 C-terminal 12 aa],0.71 ± 0.023
2,KCIRGGVFLWII [YGL014C-A C-terminal 12 aa],0.309 ± 0.0041
3,KDELERVAKSNR [RPS5 C-terminal 12 aa],0.694 ± 0.017
4,KENSRSWIIYLL [YGL034C C-terminal 12 aa],0.556 ± 0.03
5,KESSTSSEKQIA [THI72 C-terminal 12 aa],0.6804 ± 0.0025
6,KFSTRMKLAHGK [SLX1 C-terminal 12 aa],0.728 ± 0.021
7,KGIKGFFHRIFD [YGR126W C-terminal 12 aa],0.68 ± 0.018
8,KHLAKALADLIS [JHD1 C-terminal 12 aa],0.701 ± 0.032
9,KICVTLIVNELI [YLR342W-A C-terminal 12 aa],0.39 ± 0.028
10,KIHTAAIAAFKQ [ATP12 C-terminal 12 aa],0.612 ± 0.033
11,KILKGAEKKPQL [CNA1 C-terminal 12 aa],0.707 ± 0.022
12,KISTHSNAPSPG [SMA1 C-terminal 12 aa],0.675 ± 0.022
13,KIWVNIYSTPTS [PLS1 C-terminal 12 aa],0.705 ± 0.035
14,KKKGLFGRMKKK [YMR295C C-terminal 12 aa],0.69 ± 0.067
15,KKKKPAAEGAAK [TMA22 C-terminal 12 aa],0.708 ± 0.043
16,KKKSRAKKPGNV [HDA3 C-terminal 12 aa],0.734 ± 0.041
17,KKKVEFSFPDDI [MIL1 C-terminal 12 aa],0.73 ± 0.016
18,KKPLFKRKVLQI [YNL205C C-terminal 12 aa],0.422 ± 0.011
19,KKVQSYTLQEDY [BUD13 C-terminal 12 aa],0.692 ± 0.03
20,KLDDIIRARRSR [TGL3 C-terminal 12 aa],0.692 ± 0.034
21,KLENDISVKVED [NTG1 C-terminal 12 aa],0.674 ± 0.014

row,Sequence,protein stability index
1,KLLEESKGLLDV [YJR079W C-terminal 12 aa],0.699 ± 0.013
2,KNFQEHLRSING [AGC1 C-terminal 12 aa],0.702 ± 0.032
3,KNHEMGEEETKF [TCB1 C-terminal 12 aa],0.721 ± 0.041
4,KNNYSSRNSNIY [MSS116 C-terminal 12 aa],0.711 ± 0.028
5,KNRKRVLGVAYL [PXP3 C-terminal 12 aa],0.837 ± 0.063
6,KNWGPKARPNTS [TRM1 C-terminal 12 aa],0.655 ± 0.011
7,KPIEKVYFNRGI [FSF1 C-terminal 12 aa],0.7368 ± 0.0054
8,KPIGEAAAIKEK [YLH47 C-terminal 12 aa],0.707 ± 0.044
9,KQAIYTRATASE [RPS25A C-terminal 12 aa],0.687 ± 0.0034
10,KQIDVHLDKNKA [GCD7 C-terminal 12 aa],0.697 ± 0.0038
11,KQIVFEIPSQTN [RPS7B C-terminal 12 aa],0.673 ± 0.0084
12,KQMYKYHIIVLF [YBL083C C-terminal 12 aa],0.106 ± 0.0037
13,KRFTTNRNGNVI [GEF1 C-terminal 12 aa],0.696 ± 0.027
14,KSCVSSLRVMAM [YNL276C C-terminal 12 aa],0.597 ± 0.023
15,KSEGGDLPHLVQ [SPS4 C-terminal 12 aa],0.68 ± 0.013
16,KSKFQERLQQGL [RET3 C-terminal 12 aa],0.6467 ± 0.0052
17,KVKTKKEEGKER [PXA2 C-terminal 12 aa],0.654 ± 0.0067
18,KVPPRKDGIKFR [RTS2 C-terminal 12 aa],0.695 ± 0.018
19,KWKKNKKRKFTK [UBP10 C-terminal 12 aa],0.6898 ± 0.0066
20,KWLLKPCIYKRR [RRP8 C-terminal 12 aa],0.691 ± 0.016
21,KYLNDEQVKLNV [ADE13 C-terminal 12 aa],0.68 ± 0.035

row,Sequence,protein stability index
1,KYTGVYRSSWHG [YLR125W C-terminal 12 aa],0.6925 ± 0.0057
2,KYVTQILYTPLQ [GAL83 C-terminal 12 aa],0.7144 ± 0.0036
3,LAFFKRDFFKGL [NDI1 C-terminal 12 aa],0.569 ± 0.039
4,LAIEIVLCLKAR [YLR255C C-terminal 12 aa],0.355 ± 0.019
5,LALFAGLISALL [GAS3 C-terminal 12 aa],0.654 ± 0.0065
6,LCEFLKGVQSAL [DAK1 C-terminal 12 aa],0.683 ± 0.011
7,LCLLFFTFSLFF [GAS4 C-terminal 12 aa],0.371 ± 0.016
8,LDDNELFKNVWS [AGE2 C-terminal 12 aa],0.713 ± 0.017
9,LDVVKSRGSKHS [HSU1 C-terminal 12 aa],0.7 ± 0.062
10,LEKDTRQDTKAN [MCO10 C-terminal 12 aa],0.671 ± 0.025
11,LENLSQEYCSEI [YBR096W C-terminal 12 aa],0.72 ± 0.023
12,LEVYASGNPNAT [NDC1 C-terminal 12 aa],0.692 ± 0.0073
13,LEWLSNNLKNQS [ARF2 C-terminal 12 aa],0.714 ± 0.041
14,LEYLQDTYQVLK [FAR3 C-terminal 12 aa],0.733 ± 0.01
15,LEYYSNRDNDMN [RIF1 C-terminal 12 aa],0.69 ± 0.026
16,LFSDKMEPLFKK [AIF1 C-terminal 12 aa],0.738 ± 0.012
17,LGIVIKRGKSLK [YJU2 C-terminal 12 aa],0.738 ± 0.024
18,LGVVSKMLVTCK [CIA2 C-terminal 12 aa],0.326 ± 0.0041
19,LIALNRYIEDLH [MRP20 C-terminal 12 aa],0.695 ± 0.007

# From the supplement of paper PMC10724198
